What was measured:
tPA [1] = target: T1, tPA (Homo sapiens, UniProt P00750); assay: Plasminogen-activation assay (tPA activation, S-2251); assay type: biochemical; conditions: for tPA activating potential: Example 4, native, heat-denatured or alkylated preparation as labelled
Description: Plasmin (Pls) activity was assayed as described^16. Peptides and proteins that were tested for their stimulatory ability were regularly used at 100 μg ml^−1. […] Chromogenic substrate S-2251 (Chromogenix, Instrumentation Laboratory SpA, Milano, Italy) was used to measure Pls activity. Conversion of zymogen factor XII (#233490, Calbiochem, EMD Biosciences, Inc., San Diego, Calif.) to proteolytically active factor XII (factor XIIa) was assayed by measurement of the conversion of chromogenic substrate Chromozym-PK (Roche Diagnostics, Almere, The Netherlands) by kallikrein. Chromozym-PK was used at a concentration of 0.3 mM. Factor XII, human plasma prekallikrein (#529583, Calbiochem) and human plasma cofactor high-molecular weight kininogen (#422686, Calbiochem) were used at concentrations of 1 μg ml^−1. […] Assays were performed using microtiter plates (Costar, Cambridge, Mass., USA). Peptides and proteins were tested for their ability to activate factor XII. 150 μg ml^−1 kaolin, an established activator of factor XII was used as positive control and solvent (H2O) as negative control. The conversion of Chromozym-PK was recorded kinetically at 37° C. for at least 60 minutes. Assays were done in duplicate.
(§1) Formulated protein therapeutics were obtained from the local hospital pharmacy and were used as supplied by the manufacturers. […] Lyophilized therapeutics were dissolved according to the manufacturers recommendations. GH, zinc-insulin, Cealb and gelatin were stored at −20, 4, room temperature, 37 and 65° C. Other protein therapeutics were only kept at 4° C., and assayed for the presence of cross-β structure at shown time points. Enhancement in fluorescence of ThT and Congo red was measured with all formulated protein therapeutics. For this purpose, proteins were diluted to the indicated concentrations. […] Zinc-insulin was diluted tenfold in the activation assay, GH was diluted to a final concentration of 500 μg ml^−1. Activation of factor XII and prekallikrein by the therapeutics was tested in the chromogenic factor XII assay (see above). […] After coating, plates were blocked with Blocking Reagent (Roche Diagnostics, Almere, The Netherlands).
(§2) To prepare structurally altered ovalbumin (OVA) with amyloid cross-β structures, purified OVA (Sigma, A-7641, lot 071k7094) was heated to 85° C. One mg ml^−1 OVA in 67 mM NaPi buffer pH 7.0, 100 mM NaCl, was heated for two cycles in PCR cups in a PTC-200 thermal cycler (MJ Research, Inc., Waltham, Mass., USA). In each cycle, OVA was heated from 30 to 85° C. at a rate of 5° C./min. Native OVA (nOVA) and heat-denatured OVA (dOVA) were tested in the ThT fluorescence assay and in the Plg-activation assay. In the fluorescence assay and in the Plg-activation assay, 25 and 100 μg ml^−1 nOVA and dOVA were tested, respectively. TEM images of nOVA and dOVA were taken to check for the presence of large aggregates.
MSA (#126674, Calbiochem) was dissolved in 8 M urea, 100 mM Tris-HCl pH 8.2, at 10 mg ml^−1 final concentration. Dithiothreitol (DTT) was added to a final concentration of 10 mM. Air was replaced by N2 and the solution was incubated for 2 h at room temperature. Then, the solution was transferred to ice and iodoacetamide was added from a 1 M stock to a final concentration of 20 mM. […] Alkyl-MSA was dialyzed against H2O before use. […] In the ThT-fluorescence assay 25 μg ml^−1 nMSA and alkyl-MSA were tested, and in the Plg-activation assay 100 μg ml^−1 was tested. The presence of aggregates or fibrils was analyzed using TEM.
Lyophilized sterile glucagon was dissolved at 1 mg ml^−1 in H2O with 10 mM HCl. The solution was subsequently kept at 37° C. for 24 h, at 4° C. for 14 days and again at 37° C. for 9 days. […] TEM analysis was performed to assess the presence of large multimeric structures.

[2] = Thioflavin T fluorescence of protein solutions; assay type: physicochemical
Description: (§3) Fluorescence of ThT—protein/peptide adducts was measured as follows. […] Fluorescence was measured at 485 nm upon excitation at 435 nm. Background signals from buffer, buffer with ThT and protein/peptide solution without ThT were subtracted from corresponding measurements with protein solution incubated with ThT. Regularly, fluorescence of Aβ was used as a positive control, and fluorescence of FP10, a non-amyloid fibrin fragment^16, was used as a negative control. Fluorescence was measured in triplicate on a Hitachi F-4500 fluorescence spectrophotometer (Ltd., Tokyo, Japan).
as §1
ThT fluorescence of β2GPI was measured as follows. […] CL vesicles were prepared according to an established procedure. Briefly, CL was dried under a stream of nitrogen. The lipids were resuspended to a concentration of 10 mg ml^−1 in 25 mM Tris-HCl, pH 7.3, 150 mM NaCl by vigorous agitation, using a vortex. In the ThT fluorescence assay, fluorescence of β2GPI in buffer, of CL or DXS500k in buffer, of buffer and ThT alone, and of β2GPI-CL adducts and β2GPI-DXS500k adducts, with or without ThT, was recorded as described above (section ThT fluorescence). In addition, TEM images were recorded with CL, β2GPI from human plasma, with or without CL, and with recombinant β2GPI, as described^5.
as §2
MSA (#126674, Calbiochem) was dissolved in 8 M urea, 100 mM Tris-HCl pH 8.2, at 10 mg ml^−1 final concentration. Dithiothreitol (DTT) was added to a final concentration of 10 mM. Air was replaced by N2 and the solution was incubated for 2 h at room temperature. Then, the solution was transferred to ice and iodoacetamide was added from a 1 M stock to a final concentration of 20 mM. […] In the ThT-fluorescence assay 25 μg ml^−1 nMSA and alkyl-MSA were tested, and in the Plg-activation assay 100 μg ml^−1 was tested. The presence of aggregates or fibrils was analyzed using TEM. […]

[3] = ThT fluorescence enhancement by biopharmaceuticals; assay type: physicochemical; conditions: +/− SD; five μL of protein therapeutic
Description: as §3
(§4) β2-GPI was reduced and alkylated as follows. Sixhundredforty μl of β2-GPI stock was mixed with 640 μl of 8 M Urea (cooled solution) in 0.1 M Tris pH-8.2. The solution was degassed with N2 gas for approximately 6 minutes. From a 1 M DTT stock 12.8 μl was added to the solution, mixed and incubated for 3 hours at room temperature. A 1 M Iodoacetamide (Sigma; I-6125) was prepared, of which 25.6 μl was added to the β2-GPI reaction mixture. The solution was subsequently dialysed against PBS. […] Signals obtained with alkyl-β2gpi are compared with those obtained with native β2gpi starting material and with positive control acid/heat denatured amyloid-like misfolded γ-globulins.
(§5) Protein therapeutics were obtained from the local hospital pharmacy and analyzed within the expiry limits as stated by the manufacturers.
(§6) Fluorescence of Thioflavin T (ThT; Sigma T-3516, St. Louis, Mo., USA) and Congo red (CR; Aldrich Chemical Company Inc., Milwaukee, Wis., USA) was measured on a Hitachi F-4500 spectrophotometer at an excitation wavelength of 435 nm and emission wavelength of 485 nm for ThT and an excitation wavelength of 550 nm and emission wavelength of 595 nm for Congo red. […] Fluorescence was measured in triplicate. Background fluorescence of both protein in buffer and dye-solution were subtracted from the total fluorescence signal. Five μg/mL fibrillar amyloid-β(1-40) E22Q (Peptide Synthesis Facility of the Dutch Cancer Institute NKI, Amsterdam, The Netherlands) was used as a positive control in all fluorescence assays.

tPA [4] = target: T1, tPA; assay: tPA/plasminogen activation assay; assay type: biochemical; conditions: % of standardized positive control; 1:10 diluted samples
Description: as §4
Exiqon Peptide Immobilizer plates were blocked for 1 hour with PBS, 1% Tween20 and rinsed twice with distilled water. The conversion of the chromogenic substrate S-2251 (Chromogenix, Italy) by plasmin was kinetically measured at 37° C. on a Spectramax340 microplate reader at a wavelength of 405 nm. […] Denatured γ-globulins (100 μg/ml) with amyloid-like structure was used as reference and positive control. Lyophilized γ-globulins (Sigma, Mo., USA) were dissolved in a 1(:)1 volume ratio of 1,1,1,3,3,3-hexafluoro-2-propanol and trifluoro-acetic acid and subsequently dried under air. Dried γ-globulins was dissolved in H2O to a final concentration of 1 mg/ml and kept at room temperature for at least three days and subsequently stored at −20° C.
as §5

[5] = Stability testing of biopharmaceuticals under denaturing conditions; assay type: physicochemical; conditions: after exposure to harsh denaturing conditions (low pH or heat)
Description: For this purpose, 5 mg/mL Glucagon (Glucagen; Novo Nordisk Farma B. V., Alphen aan de Rijn, The Netherlands) was incubated at 37° C. in 0.01 M HCl for 48 hours. One mg/mL Etanercept (Enbrel; Wyeth Pharmaceuticals B. V., Hoofddorp, The Netherlands) in 67 mM sodium phosphate buffer, 100 mM NaCl pH 7.0 was gradually heated from 30° C. to 85° C. over a period of 12 minutes and afterwards cooled to 4° C. for 5 minutes, this treatment was repeated 4 times. Abciximab (Reopro; Centocor B. V., Leiden, The Netherlands) and Infliximab (Remicade; Schering-Plough B. V., Utrecht, The Netherlands) were incubated at 65° C. for 16 and 72 hours, respectively.

[6] = Congo red fluorescence enhancement by biopharmaceuticals; assay type: physicochemical; conditions: +/− SD; five μL of protein therapeutic
Description: Background signals from buffer, buffer with Congo red and protein/peptide solution without Congo red were subtracted from corresponding measurements with protein solution incubated with Congo red. Fluorescence was measured in triplicate on a Hitachi F-4500 fluorescence spectrophotometer (Ltd., Tokyo, Japan).
as §5, §6

tPA [7] = target: T1, tPA; assay: tPA binding assay with immobilized biopharmaceuticals in an ELISA; conditions: coated 1:10, one-site binding model
Description: Plates were washed twice with Tris buffered saline pH 7.2 containing 0.1% Tween20 (TBST) and blocked with PBS containing 1% Tween20 for 1 hour at room temperature. […] Plates were washed five times with TBST and incubated with peroxidase labeled anti-mouse immunoglobulins (RAMPO; DAKOCytomation, Glostrup, Denmark) diluted 1:3000 in PBST for 30 minutes at room temperature. Plates were washed five times with PBS 0.1% Tween20, and stained with 100 μL/well of tetramethyl-benzidine (TMB) substrate (Biosource Europe, Nivelles, Belgium). The reaction was terminated with 50 μL/well of 2 M H2SO4 and substrate conversion was read at 450 nm on a Spectramax340 microplate reader. Curves were fitted with a one-site binding model (GraphPad Prism version 4.02 for Windows, Graphpad Software, Calif., USA) from which Kd and Bmax were determined.
as §5

tPA [8] = target: T1, tPA; assay: tPA ELISA with coated protein therapeutics; assay type: binding; conditions: ELISA, stored at the recommended temperature of 4° C.
Description: as §1

[9] = target: T2, LRP cl-IV binding to BSA-AGE (Bos taurus, UniProt P02769); assay: ELISA, interference with LRP cl-IV binding to BSA-AGE; parameters: species or system human; conditions: concentration series, 50 times diluted LRP cl-IV medium
T2 construct: made in house; host or cells: HEK293E/S (LRP cl-IV, culture supernatant)
Description: To test whether amyloid-like crossbeta structure binding compounds tPA, Congo red, Thioflavin T and Thioflavin S interfere with LRP cl-IV binding to BSA-AGE, concentration series of the potential inhibitory amyloid binding moieties were tested in the presence of 50 times diluted medium containing LRP cl-IV. The following inhibitors were used: tPA, Congo red, Thioflavin T (ThT) and Thioflavin S (ThS). As a control to tPA, K2P tPA, which lacks the amyloid-like misfolded protein binding finger domain, was included in the analyses. The influence of tPA and K2P tPA was tested in the presence of 10 mM ε-amino caproic acid to avoid binding of the kringle2 domain of tPA and K2P tPA to lysine- and arginine residues. Binding buffer and K2P tPA serve as negative controls in these inhibition studies. The concentration series was measured in triplicate, the values averaged and standard deviations calculated. Background signals obtained with buffer-coated wells were subtracted. Signals obtained with binding of LRP cluster IV to BSA-AGE was set arbitrarily to a reference binding of 100% and signals obtained with the concentration series of misfolded protein binding moieties and K2P tPA were calculated based on this set reference.

[10] = glucagon after heat-denaturation at 37° C. at low pH in HCl buffer

T1 sequence (P00750 36-562): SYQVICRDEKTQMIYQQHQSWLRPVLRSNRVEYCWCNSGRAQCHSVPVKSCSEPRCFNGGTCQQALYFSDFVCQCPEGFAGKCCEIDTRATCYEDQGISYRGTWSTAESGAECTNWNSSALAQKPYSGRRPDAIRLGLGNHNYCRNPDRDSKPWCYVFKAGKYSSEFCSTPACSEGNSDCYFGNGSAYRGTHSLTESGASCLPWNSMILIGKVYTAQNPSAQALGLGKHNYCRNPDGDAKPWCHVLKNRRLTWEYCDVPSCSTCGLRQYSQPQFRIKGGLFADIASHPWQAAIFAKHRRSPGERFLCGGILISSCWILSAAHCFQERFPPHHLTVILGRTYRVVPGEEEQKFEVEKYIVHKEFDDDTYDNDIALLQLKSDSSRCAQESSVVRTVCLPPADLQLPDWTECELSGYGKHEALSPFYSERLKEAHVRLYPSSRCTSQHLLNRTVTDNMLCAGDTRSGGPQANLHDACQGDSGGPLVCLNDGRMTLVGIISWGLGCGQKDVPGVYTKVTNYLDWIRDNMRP
T2 sequence (P02769 25-607): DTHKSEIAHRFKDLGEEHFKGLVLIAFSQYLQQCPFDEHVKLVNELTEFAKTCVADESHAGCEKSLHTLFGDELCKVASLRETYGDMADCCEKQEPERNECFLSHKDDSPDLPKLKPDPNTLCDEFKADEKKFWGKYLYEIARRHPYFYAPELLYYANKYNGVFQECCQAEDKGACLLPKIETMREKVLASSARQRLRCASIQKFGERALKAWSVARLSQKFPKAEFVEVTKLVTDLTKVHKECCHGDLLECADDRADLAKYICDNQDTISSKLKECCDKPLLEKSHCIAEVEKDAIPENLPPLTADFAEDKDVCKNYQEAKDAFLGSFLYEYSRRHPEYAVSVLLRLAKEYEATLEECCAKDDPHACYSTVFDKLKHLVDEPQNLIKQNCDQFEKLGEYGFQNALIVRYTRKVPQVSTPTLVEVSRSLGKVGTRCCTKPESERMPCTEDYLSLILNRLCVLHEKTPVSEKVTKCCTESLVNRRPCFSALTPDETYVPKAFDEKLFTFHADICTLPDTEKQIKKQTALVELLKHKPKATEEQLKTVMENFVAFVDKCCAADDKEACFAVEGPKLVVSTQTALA

Substance	tPA activation Max. Activation (tPA [4]) [%]	Fluorescence ThT [3]	amyloid-like properties (ThT-fluorescence and tPA activation) [5]	Fluorescence CR [6]	further results
Insulin Zn Suspension: recombinant human Zn2+-chelated insulin (Monotard, Novo Nordisk)	17.44	387 +/− 72 a.u.	–	79 +/− 6 a.u.	binding of tPA (tPA [8]): binding of tPA was established; tPA Binding Bmax (tPA [7]): 0.7558 OD450 nm
Thioflavin S [ThS]	–	–	–	–	influence on binding of LRP cl-IV to BSA-AGE [9]: inhibit binding of LRP cl-IV to BSA-AGE to a large extent
heat/acid-denatured glucagon: glucagon kept at 37° C. in 10 mM HCl	–	–	–	–	presence of cross-β structure conformation ([2]; conclusion from ThT fluorescence, Plg-activation assay and TEM): comprise the cross-β structure conformation

Continued, in another order:

tPA activation Max. Activation (tPA [4]) [%]	Substance	Fluorescence ThT [3]	amyloid-like properties (ThT-fluorescence and tPA activation) [5]	Fluorescence CR [6]	further results
0	Etanercept	23 +/− 3 a.u.	amyloid-like properties are adopted	–	tPA activating potential (tPA [1]): some tPA activation; enhancement of ThT fluorescence ([2]; Example 4, native, heat-denatured or alkylated preparation as labelled): some ThT fluorescence enhancement
11.25	Glucagon: human glucagon (Glucagen, Novo Nordisk)	48 +/− 1 a.u.	amyloid-like properties are adopted	–	tPA activating potential (tPA [1]): some tPA activating potential; tPA activation (tPA [1]; [10]): potent activator of tPA; enhancement of ThT fluorescence [2, 10]: enhanced ThT fluorescence to a large extent
0	Infliximab: human-murine chimeric monoclonal antibody (Remicade-infliximab)	19 +/− 1 a.u.	amyloid-like properties are adopted	67 +/− 2 a.u.	–
70.93	Insulin Aspart: rapid acting human insulin analogue (NovoRapid Flexpen, Novo Nordisk)	172 +/− 3 a.u.	–	81 +/− 2 a.u.	tPA activation (tPA [1]; protein solutions stored at 4° C.): activated tPA to a lesser extent, but still significantly; tPA Binding Bmax (tPA [7]): 3.617 OD450 nm

— US20080220446A1, “Method for Detecting and/or Removing Protein and/or Peptide Comprising a Cross-Beta Structure From an Aqueous Solution Comprising a Protein” (priority 2005, published 2008)
